Experimental data reported in article PMC4656213, “Structural basis for inhibition of the Tob-CNOT7 interaction by a fragment screening approach” (Protein & Cell, 2015).
Substitutions are numbered along the chain they refer to. Names and notes keep the numbering of the source.

B1: human Tob residues 1-138 (TobN138), wild type (domain or fragment, UniProt P50616 1-138, looked up)
chain: MQLEIQVALNFIISYLYNKLPRRRVNIFGEELERLLKKKYEGHWYPEKPYKGSGFRCIHIGEKVDPVIEQASKESGLDIDDVRGNLPQDLSVWIDPFEVSYQIGEKGPVKVLYVDDNNENGCELDKEIKNSFNPEAQV
notes: Tob (Tob1), human, residues 1-138, containing the Box A and Box B motifs; Cloned into pGEX-6P-1 via BamHI and XhoI; A second preparation (His6-SUMO, pET-28b, Rosetta2) was made for the SPR screening; also called Tob1; TobN138 WT
B2: TobN138 K63A mutant (domain or fragment, human, UniProt P50616 1-138, looked up)
chain: B1 chain with K63A
notes: Tob (Tob1), human, residues 1-138, with the point mutation K63A; Made by PCR mutagenesis with the human TobN138 expression plasmid as template; source: E. coli BL21 (DE3), purified following the protocol for wild-type Tob

Target: T1, human CNOT7 (human, UniProt Q9UIV1 11-262)
T1 construct: CNOT7 (Caf1), human; A second preparation (N-terminal His6, pET-28b, Rosetta2) was made for the SPR screening; also called Caf1; CAF1; source: E. coli BL21 (DE3), purified following the protocol for wild-type Tob
T1 sequence (Q9UIV1 11-262): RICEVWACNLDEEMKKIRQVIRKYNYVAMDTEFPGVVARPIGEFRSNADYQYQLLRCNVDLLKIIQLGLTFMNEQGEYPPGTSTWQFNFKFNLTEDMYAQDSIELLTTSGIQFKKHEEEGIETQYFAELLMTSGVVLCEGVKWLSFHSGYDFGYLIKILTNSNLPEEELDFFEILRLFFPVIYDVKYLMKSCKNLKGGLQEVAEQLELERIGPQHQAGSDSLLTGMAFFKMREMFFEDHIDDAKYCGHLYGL
Test: ITC; CNOT7 at 0.05 mM in the cell, TobN138 (wild type or K63A) at 0.45 mM titrated in; room temperature; 20 mM HEPES pH 7.5, 150 mM NaCl, 5% DMSO; one-site model
Details: both partners purified

Row | Binder | stoichiometry N
1 | B1 | 0.611 ± 0.00797 sites
2 | B2 | 0.737 ± 0.00585 sites
